According to patent US11407811B2, “Fusion protein, preparation method therefor and use thereof” (JIANGSU RONGTAI BIOTECH CO., LTD., priority 2017, dated 2022):

What was measured:
[1] = test system: IL-1β production by mouse peritoneal macrophages; assay: IL-1β production by mouse peritoneal macrophages (ELISA); type: cell-based
Description: (1) IL-1β production: mice were intraperitoneally injected with 1 mL of broth medium containing 6% starch, and three days later, the mouse peritoneal macrophages were aseptically taken, washed twice with a 1640 medium, and the cell concentration was adjusted to 2×10^6 cells/mL, inoculated into a 24-well culture plate at 1 mL/well, incubated for 3 h in a cell incubator, and shaken once every 30 min, so that the cells were allowed to adhere sufficiently. Then, the cells were washed twice with a culture liquid to remove un-adhered cells. […] The supernatant was taken as a sample for testing activity of IL-1β.
(2) Determination of IL-1β content: the detection was performed by using mouse IL-1β enzyme-linked immunosorbent assay kit from R&D company. According to the instructions of the kit, the procedures were as follows: the reaction well for the test samples and different concentrations of standards were sealed with sealing tapes, respectively, incubation was performed at 37° C. for 90 min; the plate was washed four times; a biotinylated antibody working solution (100 μL/well) was added, the reaction well was sealed with sealing tapes, and incubation was performed at 37° C. for 60 min; the plate was washed four times; an enzyme conjugate working solution (100 μL/well) was added, the reaction well was sealed with sealing tapes, incubation was performed at 37° C. for 30 min; the plate was washed four times; a developer (100 μL/well) was added, incubation was performed at 37° C. for 10 to 20 min, a stop solution (100 μL/well) was added and mixed and the OD450 value was measured.

[2] = test system: angiogenesis of chicken embryo chorioallantoic membrane; assay: Chicken embryo chorioallantoic membrane (CAM) angiogenesis assay; type: in vivo; conditions: for Blood vessel number / PI: CAM, 72 hours
Source text: In this study, CAM assay was used to investigate the activity of fusion protein I, protein II, protein III, protein IV, and protein V to inhibit angiogenesis in vivo. The study has shown that the biosynthesis rate of collagen reached the maximum on the 8th to 11th day of chicken embryo development, which was the most vigorous stage of angiogenesis, and the body's immune system had not yet been fully established at that time, and thus the chicken embryos developed to the 8th day was selected to be administered. […] The following steps were used.
(1) The White Leghorn chicken embryos on day 6 were cultured in a 37° C. incubator at 60%-70% humidity for two days.
(2) A 1.0 cm×1.0 cm window was drilled above the chicken embryo air sac, and the inner membrane was torn off with forceps to expose the chorioallantoic membrane. Lens paper having a diameter of 5 mm was used as a loading carrier, and was placed on the chorioallantoic membrane of the chicken embryo air sac. Filter paper with PBS was used as a blank group, and the administration group was added with different doses of fusion protein.
(3) The chicken embryo air sac was sealed with a sterile transparent tape, and after culturing at 37° C. for 72 hours, the chicken embryo air sac was opened, and a fixative (formaldehyde:acetone=1:1) was added for fixation for 15 minutes. The chorioallantoic membrane to which the lens paper was adhered was taken out, the distribution of the new blood vessels was observed, and the new blood vessels were counted and photographed. Five replicates were set for each dose and the results were statistically analyzed.

[3] = test system: adjuvant arthritis in rat; assay: Chronic inflammation of adjuvant arthritis in rat; type: in vivo; set-up: key to Clinical score Whole body: sum of hind/fore foot, ear, nose, tail scores; full score 8; conditions: for Clinical score Whole body: full score 8; for Foot swelling degree Left: left hind foot (primary inflammation); for Clinical score Arthritis index: maximum score 16; for Foot swelling degree Right: right foot (secondary inflammation)
Description: 80 SPF SD rats were randomly divided into 8 groups. Rats in each group were lightly anesthetized with ether. Then, 0.1 mL of complete Freund's adjuvant containing inactivated Mycobacterium tuberculosis was injected subcutaneously into the left hind foot of the rats. Primary arthritis occurred in the left hind foot of the rat, and at about 13 days post-modeling, secondary arthritis occurred in the right hind foot. A blank control group was injected with an equal volume of physiological saline. The drug was administered 13 days after modeling. A methotrexate group was administered by injection every 5 days for 15 days, 4 times in total; the fusion protein I, protein II, protein III, protein IV, and protein V at high, medium and low doses (128 mg/kg, 32 mg/kg, 8 mg/kg) were administered by injection every 5 days for 15 days.
Using a foot volume measuring method, a marker was made with a fat-soluble marker at the left and right posterior ankle joint of each rat, and the left and right hind feet of the animal were respectively immersed in the volume measuring device. The immersion depth was bounded by the marker, and the reading value at the scale pipette of the device was the initial volume of the animal's left and right hind feet.
The day of modeling was considered as the 0th day and recorded as d0. The volume of the left hind foot (modeling foot) was measured from the first day d1 after modeling every 2 days. When the swelling occurred (i.e., secondary arthritis occurred) at the contralateral non-inflammatory foot (right hind foot), the administration was started. The volume of the left and right hind feet was measured every 2 days, and the degree of primary and secondary toe swelling was determined, which was calculated as follows:
Primary toe swelling (mL)=left hind foot volume on the day of measurement-initial volume of left hind foot
Secondary toe swelling (mL)=right hind foot volume on the day of measurement-initial volume of right hind foot 2. Clinical score
Systemic score: the systemic score was taken every 2 days after the onset of secondary inflammation.
Hind foot: no swelling=0 score, one hind foot swelling=1 score, two hind feet swelling=2 scores;
Forefoot: no swelling=0 score, one forefoot swelling=1 score, two forefeet swelling=2 scores;
Ear: no redness and nodules=0 score, redness or nodules in one ear=1 score, redness and nodules in both ears=2 scores;
Nose: no swelling=0 score, obvious swelling=1 score;
Tail: no nodules=0 score, with nodules=1 score; full score was 8 scores.
Arthritis index score: the arthritis index score was performed every 2 days after the onset of secondary inflammation.
The initial body weight of each group of rats was weighed before modeling. The body weight was measured every 2 days from d1 after modeling, from which the initial body weight was subtracted to obtain the weight gain of each group of rats.

B1: Protein II: IgG2-Fc linked to antiangiogenesis polypeptide EDSM-Y via a flexible linker; SEQ ID NO: 17 (protein)
chain: ERKCCVECPPCPAPPVAGPSVFLFPPKPKDTLMISRTPEVTCVVVDVSHEDPEVQFNWYVDGVEVHNAKTKPREEQFNSTFRVVSVLTVVHQDWLNGKEYKCKVSNKGLPAPIEKTISKTKGQPREPQVYTLPPSREEMTKNQVSLTCLVKGFYPSDISVEWESNGQPENNYKTTPPMLDSDGSFFLYSKLTVDKSRWQQGNVFSCSVMHEALHNHYTQKSLSLSPGKGGGGSGGGGSGGGGSFQPVLHLVALNSPLSGGMRGIRGADFQCFQQARAVGLAGTFRAGGGGRGD
B1 was tested, and the “IL-1β” value ([1]; dose 8 μg/mL) was 746.38 ± 16.59 pg/mL, the “PI (%)” value ([1]; dose 8 μg/mL) was 11.85% and the “IL-1β” value ([1]; dose 32 μg/mL) was 596.02 ± 19.97 pg/mL. For the same molecule, the “PI (%)” value ([1]; dose 32 μg/mL) was 29.61%, the “IL-1β” value ([1]; dose 128 μg/mL) was 440.56 ± 11.38 pg/mL and the “PI (%)” value ([1]; dose 128 μg/mL) was 47.97%. The “inhibition of IL-1β production” value ([1]; in words) was “could significantly inhibit IL-1β production”, the Blood vessel number ([2]; 8 μg) was 102 ± 10 and the PI ([2]; 8 μg) was 17.07%. The Blood vessel number ([2]; 32 μg) was 83 ± 11, the PI ([2]; 32 μg) was 32.52% and the Blood vessel number ([2]; 128 μg) was 66 ± 7. For the same molecule, the PI ([2]; 128 μg) was 46.34%, the “inhibitory effect on angiogenesis of CAM” value ([2]; high dose) was roughly 50% and the Weight gain ([3]; 8 mg/kg) was 44.96 ± 12.11 g. The “Clinical score Whole body” value ([3]; 8 mg/kg) was 2.23 ± 0.26, the “Foot swelling degree Left” value ([3]; 8 mg/kg) was 1.95 ± 0.12 mL and the “Clinical score Arthritis index” value ([3]; 8 mg/kg) was 6.92 ± 0.55. For the same molecule, the “Foot swelling degree Right” value ([3]; 8 mg/kg) was 1.77 ± 0.54 mL, the Weight gain ([3]; 32 mg/kg) was 48.10 ± 9.19 g and the “Clinical score Whole body” value ([3]; 32 mg/kg) was 1.81 ± 0.32. The “Foot swelling degree Left” value ([3]; 32 mg/kg) was 1.60 ± 0.19 mL, the “Clinical score Arthritis index” value ([3]; 32 mg/kg) was 5.69 ± 0.37 and the “Foot swelling degree Right” value ([3]; 32 mg/kg) was 1.54 ± 0.33 mL. For the same molecule, the Weight gain ([3]; 128 mg/kg) was 50.83 ± 15.19 g, the “Clinical score Whole body” value ([3]; 128 mg/kg) was 1.54 ± 0.19 and the “Foot swelling degree Left” value ([3]; 128 mg/kg) was 1.35 ± 0.14 mL. For the same molecule, the “Clinical score Arthritis index” value ([3]; 128 mg/kg) was 4.17 ± 0.64, the “Foot swelling degree Right” value ([3]; 128 mg/kg) was 1.35 ± 0.73 mL and the “therapeutic effect on primary arthritis (primary toe swelling degree)” value ([3]; high dose groups, compared with the model group) was “effective”.
